Reference: patent US20100003195A1 (published 2010)

T1: human KDR-Fc chimeric fusion (R&D Systems #357-KD-05) (human, UniProt P35968 20-764)
T1 chain: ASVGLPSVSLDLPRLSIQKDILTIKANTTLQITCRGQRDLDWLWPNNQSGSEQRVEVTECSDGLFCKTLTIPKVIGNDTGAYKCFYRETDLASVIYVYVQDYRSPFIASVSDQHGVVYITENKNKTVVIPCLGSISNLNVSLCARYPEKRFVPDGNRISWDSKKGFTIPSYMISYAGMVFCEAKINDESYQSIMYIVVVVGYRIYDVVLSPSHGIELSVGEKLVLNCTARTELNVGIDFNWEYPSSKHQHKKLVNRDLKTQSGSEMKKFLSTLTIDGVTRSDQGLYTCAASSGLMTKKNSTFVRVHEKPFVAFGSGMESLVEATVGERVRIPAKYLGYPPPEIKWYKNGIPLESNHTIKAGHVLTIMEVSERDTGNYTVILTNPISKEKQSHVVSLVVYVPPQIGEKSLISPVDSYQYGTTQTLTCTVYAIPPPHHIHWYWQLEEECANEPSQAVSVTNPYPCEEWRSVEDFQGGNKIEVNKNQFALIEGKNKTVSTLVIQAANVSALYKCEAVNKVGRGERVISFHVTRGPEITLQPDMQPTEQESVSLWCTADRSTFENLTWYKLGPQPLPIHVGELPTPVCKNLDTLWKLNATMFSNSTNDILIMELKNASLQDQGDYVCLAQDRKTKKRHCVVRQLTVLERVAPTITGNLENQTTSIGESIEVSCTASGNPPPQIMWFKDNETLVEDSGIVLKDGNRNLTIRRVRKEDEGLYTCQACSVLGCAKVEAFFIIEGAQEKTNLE


Target: T1, human KDR-Fc chimeric fusion (R&D …)
Experiment: -; KD, B

Kd | Binder
0.035 µM | SRVCWEDSWGGEVCFRYGGGGK [SRVCWEDSWGGEVCFRYGGGGK (SEQ ID NO: 371)]
0.91 µM | VCWEDSWGGEVCFGGGK [VCWEDSWGGEVCFGGGK (SEQ ID NO: 368)]
1.3 µM | GDSRVCWEDSWGGEVCFGGGK [GDSRVCWEDSWGGEVCFGGGK (SEQ ID NO: 369)]
